Substitutions are numbered along the chain they refer to.
B1: BH2-B11 全抗体 (full antibody, human IgG1/kappa) (antibody, V domains shown)
VH: EVQLVESGGGLVQPGGSLRLSCAASGLTWSDSYKHWVRQAPGKGLEWVHWNSTYGGSTYYADSVKGRFTISADTSKNTAYLQMNSLRAEDTAVYYCARRHFASTWDYWGQGTLVTVSS
VL: DIQMTQSPSSLSASVGDRVTITCRASQNIHNSLAWYQQKPGKAPKLLIYGASSLESGVPSRFSGSGSGTDFTLTISSLQPEDFATYYCQQERRVPWTFGQGTKVEIKR
B2: AC9-E3 全抗体 (full antibody, human IgG1/kappa) (antibody, V domains shown)
VH: B1 VH with L27C, Y33W, K34D, H49D, W50Y, N51E, F101W, A102N, S103A, W105F
VL: B1 VL with N28S, S32Y, G50S, S53N, E55P, E91G, R92L, R93H, V94T, W96P
B3: AH10-E3 全抗体 (full antibody, human IgG1/kappa) (antibody, V domains shown)
VH: EVQLVESGGGLVQPGGSLRLSCAASGWTLSDSLQHWVRQAPGKGLEWVGFQSAYGGSTYYADSVKGRFTISADTSKNTAYLQMNSLRAEDTAVYYCARRHYYTAWDYWGQGTLVTVSS
VL: B1 VL with N28S, S32Y, G50S, S53N, E55P, E91G, R92L, R93H, V94T, W96P
B4: BH2-E3 全抗体 (full antibody, human IgG1/kappa) (antibody, V domains shown)
VH: B1 VH
VL: B1 VL with N28S, S32Y, G50S, S53N, E55P, E91G, R92L, R93H, V94T, W96P
B5: AC9-B11 全抗体 (full antibody, human IgG1/kappa) (antibody, V domains shown)
VH: B1 VH with L27C, Y33W, K34D, H49D, W50Y, N51E, F101W, A102N, S103A, W105F
VL: B1 VL
B6: AH10-B11 全抗体 (full antibody, human IgG1/kappa) (antibody, V domains shown)
VH: B3 VH
VL: B1 VL

target: PD-L1 (UniProt Q9NZQ7 19-238, limits assumed); experiment: cell-based or functional assay
Sequence (Q9NZQ7 19-238 limits assumed): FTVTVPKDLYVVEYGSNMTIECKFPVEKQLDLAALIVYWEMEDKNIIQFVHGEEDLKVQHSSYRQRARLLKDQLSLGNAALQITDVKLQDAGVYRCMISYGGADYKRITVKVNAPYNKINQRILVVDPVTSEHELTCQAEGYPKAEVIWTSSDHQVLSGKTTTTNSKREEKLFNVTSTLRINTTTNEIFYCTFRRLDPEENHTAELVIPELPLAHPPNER

Binder	EC50, CD4+ T细胞增殖 (混合淋巴细胞反应 MLR, cck8)
B1	6.73 ng/mL
B2	11.9 ng/mL
B3	11.4 ng/mL
B4	7.71 ng/mL
B5	7.58 ng/mL
B6	9.88 ng/mL

From patent CN110964111A (BEIJING DONGFANG BIOTECH CO LTD, dated 2020)
